Test results from the DeepSol protein solubility set.

Experiment: soluble on expression in E. coli; label from the status in PepcDB or PDB records

Question: Which “soluble on expression in E. coli” value does the source give for “MVTNRVVFLTGAASGIGYEMGNTFAKEGAKVVITDRLEERAKEAAEQLQKEGFQAIGLKCDVTSEEEIEASISQTVNHFGSLDILINNAGMQHVSPIEDFPTEKFELLIKIMQIAPFIAIKHAFPIMKKQKYGRIINVASINGLVGFAGKAAYNSAKHGVIGLTKVAALEGATHGITVNALCPGYVDTPLVRNQLQDLATTRNVPLENVLEDVIYPLVPQKRLLQVQEIADYAMFLASEKAKGITGQAVVIDGGYTAQ” here?
Answer: not soluble

Question: For “MVTQNKKILIITGSFGNGHMQVTQSIVNQLNEMNLNHLSVIQHDLFMEAHPIMTSICKKWYINSFKYFRNTYKRFYYSRPNELDKCFYKYYGLNKLINLLIKEKPDLILLTFPTPVMSVLTEQFNINIPIATVMTDYRMHKNWITPYSQRYYVATKDTKDDFIEAGVPASYIKVTGIPIADKFELEHHHHHH”, which “soluble on expression in E. coli” value is on record?
Answer: not soluble

Question: For “MVTRITGLASGMDIDDIVSKLMQTERAPLDKLTQKKQTLEWQRDSYREVNSKIKELQDYMSKNTLTYPSTYQSKTVTSSNESVLTATGSVSAPNSSSTVEVASLATAATYKANNYTGYTQGDYNLAFNVVAPGETTAKTVNISVTSADTIDNVISKLNSSDLGVSAFKDKIWNGTEYVETIAFSSKATGAGGSIQAADSATADFMSGQLGFSLDADNKLTAYKEGTNAKVTINGFEMEKLTNNFTVNGVTYSIKNTTAATGPVTTSVSTDVDGIYNQIKEFVDKYNELVDSLNEKLKEEKYRDYTPLTSEQKEAMSDKEVELWEEKAKSGLLRNDSSISTGTNQMRTDFYTQVNADGKTYQLTEFGITTSSAYQLRGHLEINEEKLKAKIAEDPQGVANLFTSGTNDSNYSDKGIMKRITNTLRSTVKSIEAKAGNSTMGASSYSIGKNLNSISTEITDMQDRLNTIENRYYSKFSAMDSAIQKMNEQASYLSQLLVQ”, which “soluble on expression in E. coli” value is on record?
Answer: not soluble

Question: For “MVTSEQLLFLEAWRAVDRAYVDKSFNGQSWFKLRETYLKKEPMDRRAQTYDAIRKLLAVLDDPFTRFLEPSRLAALRRGTAGSVTGVGLEITYDGGSGKDVVVLTPAPGGPAEKAGARAGDVIVTVDGTAVKGLSLYDVSDLLQGEADSQVEVVLHAPGAPSNTRTLQLTRQKVTINPVTFTTCSNVAAAALPPGAAKQQLGYVRLATFNSNTTAAAQQAFTELSKQGVAGLVLDIRNNGGGLFPAGVNVARMLVDRGDLVLIADSQGIRDIYSADGNSIDSATPLVVLVNRGTASASEVLAGALKDSKRGLIAGERTFGKGLIQTVVDLSDGSGVAVTVARYQTPAGVDINKIGVSPDVQLDPEVLPTDLEGVCRVLGSDAAPRLFG”, which “soluble on expression in E. coli” value is on record?
Answer: soluble

Question: With “MVVKSLVYGIYPRSERLRKAYNRWERGLVGNEEIRRTISEEKDRFYEYVKSVGISEFTDPLFNWHDIFRPIALSVSGVTLGPLKRYLETNTFYREPEISGHITLQRKLDTFDLLEENPPLPLFALAKGSSIFLPTPSSFYKMSSVKANIGAEELYKDLVNVYSDIIDIFKPRSLVLYEVFPYNGDNLSYLESLNQKISVHLLTKGKISEKNFNGIKHKFESIISDDHPEFLKNYAKYYGFKIIDVNKTKVEDPNADYGIENYEDAIVTSNDYFDFLPREIADIKVEVLGKVGEAAALEHHHHHH” as the sequence, how does the “soluble on expression in E. coli” value read?
Answer: not soluble

Question: Which “soluble on expression in E. coli” value does the source give for “MVVSYSDSTPFGERISDSLKETQKLHTMQLNLGKVCNLACRHCHVEAGPNRREQMSQEVMKKALELFVRHGFETLDITGGAPEMNPHFEWLIHEGSKVASRLIVRTNLVILKESPWEHLAEFYAKHKVELVASLPEVSEEEVDRVRGRGVYGDSIEVIKRLNALGYGKNPDLKLDFVYNPSGPFLPPRVMELERLYKEQLFEKEEIFFHRLLSMNNIPIGRFRDSLERSGELLEYETLLRTHFNPSATPHLMCRSQISVSYEGRIYDCDFNQMLSLEAQGAKSLEEMLIQKSLKRRVVFGEHCYACTAGLGSSCQGVIAPEPL” here?
Answer: not soluble

Question: With “MVVVPHIDRQFLKDVEAVFTARARVNLPVPNPGLGTWVDRTTDTWFRFNHQLSVAIADILQRNFHYAWLTYQMILVVFKARWFFSSRHTLTVWTQFNLVARTLYRDDNSLE” as the sequence, how does the “soluble on expression in E. coli” value read?
Answer: not soluble

Question: Which “soluble on expression in E. coli” value does the source give for “MVWQREKLLQVNEIGYRDIDAGVPMQRDTLFRIASMTKPVTVAAAMSLVDEGKLALRDPITRWAPELCKVAVLDDAAGPLDRTHPARRAILIEDLLTHTSGLAYGFSVSGPISRAYQRLPFGQGPDVWLAALATLPLVHQPGDRVTYSHAIDVLGVIVSRIEDAPLYQIIDERVLGPAGMTDTGFYVSADAQRRAATMYRLDEQDRLRHDVMGPPHVTPPSFCNAGGGLWSTADDYLRFVRMLLGDGTVDGVRVLSPESVRLMRTDRLTDEQKRHSFLGAPFWVGRGFGLNLSVVTDPAKSRPLFGPGGLGTFSWPGAYGTWWQADPSADLILLYLIQHCPDLSVDAAAAVAGNPSLAKLRTAQPKFVRRTYRALGL” here?
Answer: not soluble
